Test results reported in paper PMC5499601 (Nucleic Acids Research, 2017).

How the values were obtained:
Assay in all cases: EMSA
BsSpo0J WT = molecular target: T1, BsSpo0J WT (UniProt P26497 1-282)
T1 sequence: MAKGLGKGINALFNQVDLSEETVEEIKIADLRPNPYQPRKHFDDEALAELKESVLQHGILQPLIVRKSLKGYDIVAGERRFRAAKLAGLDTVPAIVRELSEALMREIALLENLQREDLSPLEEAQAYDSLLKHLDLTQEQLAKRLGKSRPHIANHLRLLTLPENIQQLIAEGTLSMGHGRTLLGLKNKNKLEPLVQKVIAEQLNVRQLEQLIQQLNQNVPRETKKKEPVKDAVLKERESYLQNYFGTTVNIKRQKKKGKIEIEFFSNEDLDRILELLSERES

BsSpo0J R79A = molecular target: T2, BsSpo0J R79A (UniProt P26497 1-282, R79A)
T2 sequence: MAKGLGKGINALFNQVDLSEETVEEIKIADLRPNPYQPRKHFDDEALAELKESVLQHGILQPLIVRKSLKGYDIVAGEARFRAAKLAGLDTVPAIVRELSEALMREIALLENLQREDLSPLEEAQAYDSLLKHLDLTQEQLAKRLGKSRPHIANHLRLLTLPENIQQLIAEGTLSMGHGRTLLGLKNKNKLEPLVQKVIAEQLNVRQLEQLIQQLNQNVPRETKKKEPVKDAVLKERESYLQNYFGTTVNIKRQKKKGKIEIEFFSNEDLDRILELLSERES

BsSpo0J R105E = molecular target: T3, BsSpo0J R105E (UniProt P26497 1-282, R105E)
T3 sequence: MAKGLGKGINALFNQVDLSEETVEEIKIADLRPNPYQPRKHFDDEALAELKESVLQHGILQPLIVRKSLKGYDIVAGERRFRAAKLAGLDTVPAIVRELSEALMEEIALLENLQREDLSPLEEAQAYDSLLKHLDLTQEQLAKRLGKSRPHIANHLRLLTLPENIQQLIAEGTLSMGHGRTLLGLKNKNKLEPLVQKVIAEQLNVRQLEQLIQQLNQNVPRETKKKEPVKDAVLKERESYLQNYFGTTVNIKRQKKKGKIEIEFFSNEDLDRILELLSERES

BsSpo0J V75A = molecular target: T4, BsSpo0J V75A (UniProt P26497 1-282, V75A)
T4 sequence: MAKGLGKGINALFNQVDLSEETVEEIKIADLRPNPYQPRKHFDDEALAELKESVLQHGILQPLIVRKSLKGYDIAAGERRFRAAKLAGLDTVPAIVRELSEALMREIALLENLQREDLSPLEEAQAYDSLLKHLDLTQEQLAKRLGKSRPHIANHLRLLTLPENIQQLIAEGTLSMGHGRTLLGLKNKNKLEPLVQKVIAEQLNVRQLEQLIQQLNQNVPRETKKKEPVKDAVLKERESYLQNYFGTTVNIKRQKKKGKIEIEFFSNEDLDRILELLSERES

BsSpo0J R105A = molecular target: T5, BsSpo0J R105A (UniProt P26497 1-282, R105A)
T5 sequence: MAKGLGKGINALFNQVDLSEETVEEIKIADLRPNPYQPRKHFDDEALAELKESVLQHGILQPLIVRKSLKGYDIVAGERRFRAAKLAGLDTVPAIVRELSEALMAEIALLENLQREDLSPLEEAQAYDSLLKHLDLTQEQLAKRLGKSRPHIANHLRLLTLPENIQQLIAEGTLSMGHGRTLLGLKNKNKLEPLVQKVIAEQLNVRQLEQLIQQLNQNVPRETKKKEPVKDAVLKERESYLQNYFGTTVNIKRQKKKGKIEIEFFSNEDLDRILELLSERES

BsSpo0J Q61R = molecular target: T6, BsSpo0J Q61R (UniProt P26497 1-282, Q61R)
T6 sequence: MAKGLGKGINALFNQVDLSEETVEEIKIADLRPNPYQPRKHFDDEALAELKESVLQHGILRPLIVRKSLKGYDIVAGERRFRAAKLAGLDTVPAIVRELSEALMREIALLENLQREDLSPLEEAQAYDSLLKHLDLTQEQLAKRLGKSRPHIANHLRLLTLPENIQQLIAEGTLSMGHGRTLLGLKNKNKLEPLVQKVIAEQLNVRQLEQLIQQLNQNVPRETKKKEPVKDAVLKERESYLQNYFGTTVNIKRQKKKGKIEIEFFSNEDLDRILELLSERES

BsSpo0J M104A = molecular target: T7, BsSpo0J M104A (UniProt P26497 1-282, M104A)
T7 sequence: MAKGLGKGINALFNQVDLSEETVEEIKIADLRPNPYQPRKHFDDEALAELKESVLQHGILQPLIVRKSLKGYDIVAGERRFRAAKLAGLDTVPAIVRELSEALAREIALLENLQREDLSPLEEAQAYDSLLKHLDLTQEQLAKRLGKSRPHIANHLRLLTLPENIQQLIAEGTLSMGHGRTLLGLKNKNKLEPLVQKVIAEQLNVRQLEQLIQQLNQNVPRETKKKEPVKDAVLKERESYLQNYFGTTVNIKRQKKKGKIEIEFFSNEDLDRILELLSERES

BsSpo0J N112S = molecular target: T8, BsSpo0J N112S (UniProt P26497 1-282, N112S)
T8 sequence: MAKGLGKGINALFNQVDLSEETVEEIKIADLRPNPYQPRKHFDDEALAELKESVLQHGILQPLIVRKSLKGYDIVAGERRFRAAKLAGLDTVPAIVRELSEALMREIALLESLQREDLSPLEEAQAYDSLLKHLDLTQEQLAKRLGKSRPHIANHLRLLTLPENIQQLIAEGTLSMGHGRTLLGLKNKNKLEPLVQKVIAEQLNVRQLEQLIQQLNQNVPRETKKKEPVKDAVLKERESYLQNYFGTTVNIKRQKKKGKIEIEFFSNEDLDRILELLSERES

BsSpo0J R39A = molecular target: T9, BsSpo0J R39A (UniProt P26497 1-282, R39A)
T9 sequence: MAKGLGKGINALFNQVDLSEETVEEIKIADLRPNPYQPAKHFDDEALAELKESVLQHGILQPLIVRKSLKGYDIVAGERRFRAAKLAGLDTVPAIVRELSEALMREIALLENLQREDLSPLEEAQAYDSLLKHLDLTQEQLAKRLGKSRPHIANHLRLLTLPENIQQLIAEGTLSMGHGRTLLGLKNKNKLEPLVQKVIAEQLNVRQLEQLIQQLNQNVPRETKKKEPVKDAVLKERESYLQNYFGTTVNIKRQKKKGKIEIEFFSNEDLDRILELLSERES

Measured: binding result

B1: 39-bp parS (dsDNA)
DNA 1: CAGTTGAATCAGAATGTTCCACGTGAAACAAAGAAAAAA
DNA 2: TTTTTTCTTTGTTTCACGTGGAACATTCTGATTCAACTG
binds: all assays above
